Laboratory results from patent US20260125446A1 (Eli Lilly, published 2026).
Ends that are not written are not given here.

B1: RLN Analog 5 (other)
chain: SWMEEVIKLCGRELVRAQIAICGMSTWSGGGSGGSGGGQLYSALANKCCHVGCTKRSLARFCGGGGQGGGGQGGGGQGGGGQGGGGQEVQLLESGGGLVQPGGSLRLSCAASGRYIDETAVAWFRQAPGKEREFVAGIGGGVDITYYADSVKGRFTISRDNSKNTLYLQMNSLRPEDTAVYYCAARPGRPLITSKVADLYPYWGQGTLVTVSSPP
notes: Single-chain fusion: RLN2 B chain (desB1) - L2 - RLN2 A chain - (G4Q)5 L1 - VHH (C-terminal)
B2: RLN Analog 1 (other)
chain: EVQLLESGGGLVQPGGSLRLSCAASGRYIDETAVAWFRQAPGKEREFVAGIGGGVDITYYADSVKGRFTISRDNSKNTLYLQMNSLRPEDTAVYYCAARPGRPLITSKVADLYPYWGQGTLVTVSSGGGGQGGGGQGGGGQGGGGQGGGGQQLYSALANKCCHVGCTKRSLARFCGGGSGGSGGGSWMEEVIKLCGRELVRAQIAICGMSTWS
B3: RLN Analog 2 (other)
chain: EVQLLESGGGLVQPGGSLRLSCAASGRYIDETAVAWFRQAPGKEREFVAGIGGGVDITYYADSVKGRFTISRDNSKNTLYLQMNSLRPEDTAVYYCAARPGRPLITSKVADLYPYWGQGTLVTVSSPGPAPGPAPGPAPGPAPGPAPGPAPGPAPGPAQLYSALANKCCHVGCTKRSLARFCGGGSGGSGGGSWMEEVIKLCGRELVRAQIAICGMSTWS
notes: Single-chain fusion: VHH - (PGPA)8 L1 - RLN2 A chain - L2 - RLN2 B chain (desB1)
B4: native, human RLN2 (ligand)
chain 1: QLYSALANKCCHVGCTKRSLARFC
chain 2: DSWMEEVIKLCGRELVRAQIAICGMSTWS
modifications: disulfide (positions not given here); not fully specified (bridges); ends not checked; also: two interchain and one intra-A-chain disulfide, pairing not given here

Assays:
dog serum albumin = biological target: T1, dog serum albumin (dog, UniProt P49822 25-608); assay: SPR (Biacore 8K), albumin immobilized on CM5 chip, 25 C, 1:1 kinetic fit
T1 construct: Bought protein, immobilized on a CM5 chip by amine coupling; also called Dog SA
Procedure: (§1) The immobilization of the serum albumin to a Series S Sensor Chip CM5 surface is performed according to the manufacturer's instructions (Amine Coupling Kit BR-1000-50). Briefly, carboxyl groups on the sensor chip surfaces (flow cell 1 and 2) are activated by injecting 70 μL of a mixture containing 75 mg/mL EDC and 11.5 mg/mL NHS at 10 μL/min. Human, cynomolgus monkey, mouse, rat, pig, dog, cow and rabbit serum albumin are diluted in 10 mM sodium acetate pH 4.0 (BR-1003-49) at […] and then injected over the activated chip surfaces (flow cell 2, channel 1 to 8) at 10 μL/min for 180 sec (human, mouse, rat, pig and cow serum albumin are obtained from Sigma Aldrich (St. Louis, MO); cynomolgus monkey serum albumin is obtained from Hölzel Diagnostika (Cologne, Germany); dog serum albumin is obtained from Molecular Innovations (Novi, MI); and rabbit serum albumin is obtained from Fitzgerald Industries Intl. (Acton, MA). The various serum albumins are covalently immobilized through free amines onto a carboxymethyl dextran-coated sensor chip CM5 targeting a surface density of about 100 (62-145) RU. Excess reactive groups on the surfaces (flow cell 1 and 2) are deactivated by injecting 70 μL of 1 M ETA HCl—NaOH pH 8.5.
(§2) 150 μl of sample is individually injecting sequentially across the immobilized serum albumins on the chip's surface and dissociating for 600 sec at 50 μL/min flow rate at 25° C. The surface is regenerated by injecting 10 mM glycine-HCl pH 1.5 (BR-1003-54) at 50 μL/min for 100 sec. The resulting sensorgrams are analyzed using Biacore 8K Insight Evaluation Software (version 2.0.15.12933) 1:1 binding kinetics model fitting to calculate the binding kinetic parameter association rate (ka), dissociation rate (kd), and equilibrium dissociation constant (KD).

rat serum albumin = biological target: T2, rat serum albumin (rat, UniProt P02770 25-608); assay: as above
T2 construct: Bought protein, immobilized on a CM5 chip by amine coupling; also called Rat SA
Procedure: as §1, §2

[1] = biological target: T3, cynomolgus monkey serum albumin (cynomolgus monkey, UniProt A2V9Z4 25-608); assay: as above
T3 construct: Bought protein, immobilized on a CM5 chip by amine coupling; also called Cyno SA
Procedure: as §1, §2

mouse serum albumin = biological target: T4, mouse serum albumin (mouse, UniProt P07724 25-608); assay: as above
T4 construct: Bought protein, immobilized on a CM5 chip by amine coupling; also called Mouse SA
Procedure: as §1, §2

human serum albumin = biological target: T5, human serum albumin (human, UniProt P02768 25-609); assay: as above
T5 construct: Bought protein, immobilized on a CM5 chip by amine coupling; also called Human SA
Procedure: as §1, §2

pig serum albumin = biological target: T6, pig serum albumin (pig, UniProt P08835 25-607); assay: as above
T6 construct: Bought protein, immobilized on a CM5 chip by amine coupling; also called Pig SA
Procedure: as §1, §2

human RXFP2 receptor = human RXFP2 receptor (human, UniProt Q8WXD0 1-754); assay: cell-based or functional assay
human RXFP1 receptor = biological target: T7, human RXFP1 receptor (human, UniProt Q9HBX9 1-757); assay: cell-based or functional assay
T7 sequence: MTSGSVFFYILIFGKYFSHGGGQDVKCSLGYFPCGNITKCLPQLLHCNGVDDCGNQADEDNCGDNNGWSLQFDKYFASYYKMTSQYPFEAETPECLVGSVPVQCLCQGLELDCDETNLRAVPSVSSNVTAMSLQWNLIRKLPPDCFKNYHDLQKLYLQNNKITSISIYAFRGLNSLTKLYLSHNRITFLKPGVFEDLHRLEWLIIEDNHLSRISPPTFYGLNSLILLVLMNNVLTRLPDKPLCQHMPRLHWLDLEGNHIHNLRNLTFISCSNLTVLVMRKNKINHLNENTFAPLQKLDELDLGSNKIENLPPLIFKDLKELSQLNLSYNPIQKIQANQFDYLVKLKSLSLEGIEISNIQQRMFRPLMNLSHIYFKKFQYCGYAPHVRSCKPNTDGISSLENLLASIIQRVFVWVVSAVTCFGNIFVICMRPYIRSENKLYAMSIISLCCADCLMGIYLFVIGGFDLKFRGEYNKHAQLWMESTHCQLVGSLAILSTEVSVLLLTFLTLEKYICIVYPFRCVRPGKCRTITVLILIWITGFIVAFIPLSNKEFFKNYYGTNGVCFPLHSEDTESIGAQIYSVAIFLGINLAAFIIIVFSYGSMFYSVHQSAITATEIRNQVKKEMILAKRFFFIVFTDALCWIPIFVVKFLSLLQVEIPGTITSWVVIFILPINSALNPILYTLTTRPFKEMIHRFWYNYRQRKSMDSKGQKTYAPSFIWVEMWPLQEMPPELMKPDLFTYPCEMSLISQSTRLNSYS

cow serum albumin [2] = biological target: T8, cow serum albumin (cow, UniProt P02769 25-607); assay: SPR (Biacore 8K), albumin immobilized on CM5 chip, 25 C, steady state
T8 construct: Bought protein, immobilized on a CM5 chip by amine coupling; also called Cow SA
Procedure: as §1
150 μl of sample is individually injecting sequentially across the immobilized serum albumins on the chip's surface and dissociating for 600 sec at 50 μL/min flow rate at 25° C. The surface is regenerated by injecting 10 mM glycine-HCl pH 1.5 (BR-1003-54) at 50 μL/min for 100 sec. The resulting sensorgrams are analyzed using Biacore 8K Insight Evaluation Software ([…]).

rabbit serum albumin = biological target: T9, rabbit serum albumin (rabbit, UniProt P49065 25-608); assay: SPR (Biacore 8K), albumin immobilized on CM5 chip, 25 C
T9 construct: Bought protein, immobilized on a CM5 chip by amine coupling; also called Rabbit SA
Procedure: as §1, §2

cow serum albumin [3] = biological target: T8, cow serum albumin; assay: SPR (Biacore 8K), albumin immobilized on CM5 chip, 25 C, 1:1 kinetic fit
Procedure: as §1, §2

Row | Binder | Kd (dog serum albumin) [nM] | koff (dog serum albumin) [s⁻¹] | kon (dog serum albumin) [M⁻¹ s⁻¹] | Kd (rat serum albumin) [nM] | koff (rat serum albumin) [s⁻¹] | kon (rat serum albumin) [M⁻¹ s⁻¹] | Kd [1] [nM] | koff [1] [s⁻¹] | kon [1] [M⁻¹ s⁻¹] | Kd (mouse serum albumin) [nM] | koff (mouse serum albumin) [s⁻¹] | kon (mouse serum albumin) [M⁻¹ s⁻¹] | Kd (human serum albumin) [nM] | koff (human serum albumin) [s⁻¹] | kon (human serum albumin) [M⁻¹ s⁻¹] | Kd (pig serum albumin) [nM] | koff (pig serum albumin) [s⁻¹] | kon (pig serum albumin) [M⁻¹ s⁻¹] | hRXFP2 EC50 nM GeoMean (cAMP CRE luciferase reporter assay, CHO cells expressing human RXFP2) (human RXFP2 receptor) [nM] | binding result (rabbit serum albumin) | further results
1 | B1 | 4.7 | 0.0034 | 710000 | 10 | 0.0072 | 700000 | 1.8 | 0.0015 | 820000 | 14 | 0.0083 | 590000 | 0.45 | 0.00026 | 580000 | 23 | 0.013 | 580000 | 98 | no binding (tested: 1000 nM (highest concentration tested)) | hRXFP1 EC50 nM GeoMean (cAMP CRE luciferase reporter assay, CHO cells expressing human RXFP1) (human RXFP1 receptor): 8.1 nM; Kd (cow serum albumin [2]): 120 nM
2 | B2 | 1.2 | 0.0015 | 1.3e+06 | 2.1 | 0.0026 | 1.2e+06 | 0.5 | 0.00053 | 1.1e+06 | 3.3 | 0.0042 | 1.3e+06 | 0.11 | 0.00011 | 980000 | 7.1 | 0.0055 | 780000 |  | no binding (tested: 1000 nM (highest concentration tested)) | Kd (cow serum albumin [3]): 37 nM; koff (cow serum albumin [3]): 0.05 s⁻¹; kon (cow serum albumin [3]): 1.4e+06 M⁻¹ s⁻¹
3 | B3 | 1.4 | 0.0015 | 1e+06 | 3 | 0.0029 | 980000 | 0.45 | 0.00052 | 1.2e+06 | 3.8 | 0.0042 | 1.1e+06 | 0.1 | 9.5e-05 | 920000 | 8 | 0.0056 | 690000 |  | no binding (tested: 1000 nM (highest concentration tested)) | Kd (cow serum albumin [3]): 50 nM; koff (cow serum albumin [3]): 0.049 s⁻¹; kon (cow serum albumin [3]): 980000 M⁻¹ s⁻¹
4 | B4 |  |  |  |  |  |  |  |  |  |  |  |  |  |  |  |  |  |  | 1.7 |  | hRXFP1 EC50 nM GeoMean (cAMP CRE luciferase reporter assay, CHO cells expressing human RXFP1) (human RXFP1 receptor): 0.15 nM
